Reference: IntAct's records for PubMed 35512704

B1: Mothers against decapentaplegic homolog 4 (Homo sapiens), Q13485 (parent)
chain: MDNMSITNTPTSNDACLSIVHSLMCHRQGGESETFAKRAIESLVKKLKEKKDELDSLITAITTNGAHPSKCVTIQRTLDGRLQVAGRKGFPHVIYARLWRWPDLHKNELKHVKYCQYAFDLKCDSVCVNPYHYERVVSPGIDLSGLTLQSNAPSSMMVKDEYVHDFEGQPSLSTEGHSIQTIQHPPSNRASTETYSTPALLAPSESNATSTANFPNIPVASTSQPASILGGSHSEGLLQIASGPQPGQQQNGFTGQPATYHHNSTTTWTGSRTAPYTPNLPHHQNGHLQHHPPMPPHPGHYWPVHNELAFQPPISNHPAPEYWCSIAYFEMDVQVGETFKVPSSCPIVTVDGYVDPSGGDRFCLGQLSNVHRTEAIERARLHIGKGVQLECKGEGDVWVRCLSDHAVFVQSYYLDREAGRAPGDAVHKIYPSAYIKVFDLRQCHRQMQQQAATAQAAAAAQAAAVAGNIPGPGSVGGIAPAISLSAAAGIGVDDLRRLCILRMSFVKGWGPDYPRQSIKETPCWIEIHLHRALQLLDEVLHTMPIADPQPLD
partner: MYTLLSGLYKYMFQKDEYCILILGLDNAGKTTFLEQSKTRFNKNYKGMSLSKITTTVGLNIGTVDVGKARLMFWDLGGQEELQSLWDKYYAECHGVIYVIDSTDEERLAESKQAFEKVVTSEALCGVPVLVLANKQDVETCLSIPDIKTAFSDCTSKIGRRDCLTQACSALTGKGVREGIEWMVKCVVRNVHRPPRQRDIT
B2: Mothers against decapentaplegic homolog 4 (Homo sapiens), Q13485 (parent)
chain: B1 chain
partner: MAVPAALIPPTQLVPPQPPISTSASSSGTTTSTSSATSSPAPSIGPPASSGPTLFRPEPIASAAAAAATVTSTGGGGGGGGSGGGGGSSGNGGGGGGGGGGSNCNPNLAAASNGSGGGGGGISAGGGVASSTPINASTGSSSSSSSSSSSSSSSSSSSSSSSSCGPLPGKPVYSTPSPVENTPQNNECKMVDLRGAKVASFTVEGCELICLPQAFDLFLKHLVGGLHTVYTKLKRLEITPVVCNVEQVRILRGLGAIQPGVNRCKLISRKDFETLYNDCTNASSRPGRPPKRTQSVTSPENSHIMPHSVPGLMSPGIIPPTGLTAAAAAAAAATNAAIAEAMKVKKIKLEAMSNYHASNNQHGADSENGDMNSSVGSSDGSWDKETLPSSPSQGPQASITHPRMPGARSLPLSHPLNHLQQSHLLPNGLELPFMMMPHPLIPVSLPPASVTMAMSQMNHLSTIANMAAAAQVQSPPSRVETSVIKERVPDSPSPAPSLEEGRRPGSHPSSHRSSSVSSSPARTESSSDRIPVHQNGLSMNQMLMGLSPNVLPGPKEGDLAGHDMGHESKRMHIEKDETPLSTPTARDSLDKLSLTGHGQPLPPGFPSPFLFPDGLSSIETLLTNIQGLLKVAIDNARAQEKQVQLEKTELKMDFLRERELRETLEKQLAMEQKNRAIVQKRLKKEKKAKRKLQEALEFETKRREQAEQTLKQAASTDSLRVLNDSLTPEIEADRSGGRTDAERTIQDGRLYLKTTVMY
B3: Mothers against decapentaplegic homolog 4 (Homo sapiens), Q13485 (parent)
chain: B1 chain
partner: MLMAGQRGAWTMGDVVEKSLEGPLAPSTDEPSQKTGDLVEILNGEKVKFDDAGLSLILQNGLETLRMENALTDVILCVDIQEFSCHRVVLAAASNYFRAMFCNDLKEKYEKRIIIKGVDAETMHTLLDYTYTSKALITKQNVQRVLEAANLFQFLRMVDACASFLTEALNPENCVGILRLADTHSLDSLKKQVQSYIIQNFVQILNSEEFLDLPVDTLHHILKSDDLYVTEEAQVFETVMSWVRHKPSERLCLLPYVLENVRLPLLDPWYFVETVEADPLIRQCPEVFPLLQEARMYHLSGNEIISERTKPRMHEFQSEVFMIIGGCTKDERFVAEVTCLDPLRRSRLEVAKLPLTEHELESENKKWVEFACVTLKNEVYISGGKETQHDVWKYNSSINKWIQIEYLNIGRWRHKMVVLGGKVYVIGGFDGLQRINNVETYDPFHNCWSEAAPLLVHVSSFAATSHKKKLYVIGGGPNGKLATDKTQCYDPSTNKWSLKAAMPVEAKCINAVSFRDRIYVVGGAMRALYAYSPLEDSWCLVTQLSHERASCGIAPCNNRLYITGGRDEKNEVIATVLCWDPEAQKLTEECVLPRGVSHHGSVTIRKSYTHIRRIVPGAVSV
B4: Mothers against decapentaplegic homolog 4 (Homo sapiens), Q13485 (parent)
chain: B1 chain
partner: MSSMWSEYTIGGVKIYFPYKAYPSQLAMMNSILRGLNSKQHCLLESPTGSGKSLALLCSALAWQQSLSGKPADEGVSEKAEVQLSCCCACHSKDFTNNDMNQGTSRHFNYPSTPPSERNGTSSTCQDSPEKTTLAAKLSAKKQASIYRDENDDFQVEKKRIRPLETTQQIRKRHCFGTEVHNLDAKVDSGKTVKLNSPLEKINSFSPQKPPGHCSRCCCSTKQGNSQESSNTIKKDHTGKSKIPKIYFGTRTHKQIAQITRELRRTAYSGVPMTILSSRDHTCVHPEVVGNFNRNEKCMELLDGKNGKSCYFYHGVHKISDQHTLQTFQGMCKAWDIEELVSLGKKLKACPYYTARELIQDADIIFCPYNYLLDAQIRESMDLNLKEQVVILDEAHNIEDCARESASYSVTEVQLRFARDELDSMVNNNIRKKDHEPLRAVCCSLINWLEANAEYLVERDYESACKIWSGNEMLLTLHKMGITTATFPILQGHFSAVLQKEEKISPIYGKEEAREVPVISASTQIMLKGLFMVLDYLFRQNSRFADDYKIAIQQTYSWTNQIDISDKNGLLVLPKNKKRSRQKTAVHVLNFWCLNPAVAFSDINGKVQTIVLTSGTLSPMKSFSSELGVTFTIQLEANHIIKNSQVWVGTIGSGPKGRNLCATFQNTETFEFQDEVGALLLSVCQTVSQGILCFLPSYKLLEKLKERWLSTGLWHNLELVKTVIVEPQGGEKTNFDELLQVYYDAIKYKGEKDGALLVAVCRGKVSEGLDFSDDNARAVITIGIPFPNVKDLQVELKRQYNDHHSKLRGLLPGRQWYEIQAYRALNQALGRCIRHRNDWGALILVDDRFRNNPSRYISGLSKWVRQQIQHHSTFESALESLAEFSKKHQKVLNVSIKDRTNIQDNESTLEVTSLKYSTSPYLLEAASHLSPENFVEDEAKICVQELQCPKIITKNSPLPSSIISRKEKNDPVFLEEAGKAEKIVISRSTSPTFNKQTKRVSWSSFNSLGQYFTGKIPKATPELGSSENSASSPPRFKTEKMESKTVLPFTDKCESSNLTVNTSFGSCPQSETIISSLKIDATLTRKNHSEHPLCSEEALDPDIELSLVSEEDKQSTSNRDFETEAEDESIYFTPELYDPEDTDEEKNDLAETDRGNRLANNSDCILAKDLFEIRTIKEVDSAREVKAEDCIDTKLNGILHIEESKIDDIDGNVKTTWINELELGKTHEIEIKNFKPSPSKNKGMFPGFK
B5: Mothers against decapentaplegic homolog 4 (Homo sapiens), Q13485 (parent)
chain: B1 chain
partner: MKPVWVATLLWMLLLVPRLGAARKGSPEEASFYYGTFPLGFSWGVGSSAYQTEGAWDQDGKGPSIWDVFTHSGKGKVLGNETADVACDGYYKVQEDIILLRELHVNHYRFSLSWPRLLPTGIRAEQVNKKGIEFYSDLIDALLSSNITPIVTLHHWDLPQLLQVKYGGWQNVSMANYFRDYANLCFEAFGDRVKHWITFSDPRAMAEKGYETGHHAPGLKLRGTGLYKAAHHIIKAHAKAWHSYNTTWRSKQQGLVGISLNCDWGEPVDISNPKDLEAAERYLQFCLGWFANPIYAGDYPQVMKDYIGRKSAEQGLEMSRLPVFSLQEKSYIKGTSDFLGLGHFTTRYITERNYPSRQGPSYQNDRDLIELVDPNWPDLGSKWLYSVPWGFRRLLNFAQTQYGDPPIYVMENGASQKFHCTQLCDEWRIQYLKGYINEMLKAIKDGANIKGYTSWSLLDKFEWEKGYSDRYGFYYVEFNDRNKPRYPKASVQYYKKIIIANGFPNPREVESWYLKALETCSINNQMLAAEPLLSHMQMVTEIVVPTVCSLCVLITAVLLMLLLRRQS
B6: Mothers against decapentaplegic homolog 4 (Homo sapiens), Q13485 (parent)
chain: B1 chain
partner: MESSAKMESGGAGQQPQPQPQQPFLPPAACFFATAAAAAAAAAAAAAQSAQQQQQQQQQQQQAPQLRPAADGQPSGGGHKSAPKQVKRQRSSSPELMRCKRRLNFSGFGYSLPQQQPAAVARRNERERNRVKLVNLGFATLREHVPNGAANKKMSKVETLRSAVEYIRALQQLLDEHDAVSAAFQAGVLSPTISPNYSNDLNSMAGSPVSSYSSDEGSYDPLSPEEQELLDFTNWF
B7: Mothers against decapentaplegic homolog 4 (Homo sapiens), Q13485 (parent)
chain: B1 chain
partner: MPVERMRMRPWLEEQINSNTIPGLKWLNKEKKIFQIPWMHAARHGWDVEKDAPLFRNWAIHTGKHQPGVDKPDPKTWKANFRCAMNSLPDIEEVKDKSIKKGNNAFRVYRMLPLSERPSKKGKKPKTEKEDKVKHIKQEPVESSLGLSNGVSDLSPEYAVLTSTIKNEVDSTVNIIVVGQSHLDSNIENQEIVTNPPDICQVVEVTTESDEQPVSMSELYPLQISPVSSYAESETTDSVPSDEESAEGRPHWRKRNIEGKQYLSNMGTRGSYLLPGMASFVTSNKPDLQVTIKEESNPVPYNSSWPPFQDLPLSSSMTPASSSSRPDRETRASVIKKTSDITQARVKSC

Variants of: B1
Settings: with arfrp_human ARFRP1, Q13795

| Variant | effect of a mutation on the interaction |
| --- | --- |
| D351H | with no effect |

Variants of: B1
Settings: with arfrp_human ARFRP1, Q13795
Remark: another data set of the same source

| Variant | effect of a mutation on the interaction |
| --- | --- |
| R361C | with no effect |

Variants of: B1
Settings: with arfrp_human ARFRP1, Q13795
Remark: another data set of the same source

| Variant | effect of a mutation on the interaction |
| --- | --- |
| R361H | with no effect |

Variants of: B1
Settings: with arfrp_human ARFRP1, Q13795
Remark: another data set of the same source

| Variant | effect of a mutation on the interaction |
| --- | --- |
| G386D | with no effect |

Variants of: B2
Settings: with dach1_human DACH1, Q9UI36

| Variant | effect of a mutation on the interaction |
| --- | --- |
| R361H | with no effect |

Variants of: B2
Settings: with dach1_human DACH1, Q9UI36
Remark: another data set of the same source

| Variant | effect of a mutation on the interaction |
| --- | --- |
| R361C | with no effect |

Variants of: B2
Settings: with dach1_human DACH1, Q9UI36
Remark: another data set of the same source

| Variant | effect of a mutation on the interaction |
| --- | --- |
| D351H | with no effect |

Variants of: B2
Settings: with dach1_human DACH1, Q9UI36
Remark: another data set of the same source

| Variant | effect of a mutation on the interaction |
| --- | --- |
| G386D | with no effect |

Variants of: B3
Settings: with klhl6_human KLHL6, Q8WZ60

| Variant | effect of a mutation on the interaction |
| --- | --- |
| G386D | with no effect |

Variants of: B3
Settings: with klhl6_human KLHL6, Q8WZ60
Remark: another data set of the same source

| Variant | effect of a mutation on the interaction |
| --- | --- |
| G386D | causing an interaction |

Variants of: B3
Settings: with klhl6_human KLHL6, Q8WZ60
Remark: another data set of the same source

| Variant | effect of a mutation on the interaction |
| --- | --- |
| D351H | with no effect |

Variants of: B3
Settings: with klhl6_human KLHL6, Q8WZ60
Remark: another data set of the same source

| Variant | effect of a mutation on the interaction |
| --- | --- |
| R361H | with no effect |

Variants of: B3
Settings: with klhl6_human KLHL6, Q8WZ60
Remark: another data set of the same source

| Variant | effect of a mutation on the interaction |
| --- | --- |
| R361C | with no effect |

Variants of: B4
Settings: with fancj_human BRIP1, Q9BX63

| Variant | effect of a mutation on the interaction |
| --- | --- |
| G386D | with no effect |

Variants of: B4
Settings: with fancj_human BRIP1, Q9BX63
Remark: another data set of the same source

| Variant | effect of a mutation on the interaction |
| --- | --- |
| D351H | with no effect |

Variants of: B5
Settings: with lctl_human LCTL

| Variant | effect of a mutation on the interaction |
| --- | --- |
| G386D | with no effect |

Variants of: B5
Settings: with lctl_human LCTL
Remark: another data set of the same source

| Variant | effect of a mutation on the interaction |
| --- | --- |
| D351H | with no effect |

Variants of: B6
Settings: with ascl1_human ASCL1, P50553

| Variant | effect of a mutation on the interaction |
| --- | --- |
| G386D | with no effect |

Variants of: B6
Settings: with ascl1_human ASCL1, P50553
Remark: another data set of the same source

| Variant | effect of a mutation on the interaction |
| --- | --- |
| D351H | with no effect |

Variants of: B6
Settings: with ascl1_human ASCL1, P50553
Remark: another data set of the same source

| Variant | effect of a mutation on the interaction |
| --- | --- |
| R361H | with no effect |

Variants of: B6
Settings: with ascl1_human ASCL1, P50553
Remark: another data set of the same source

| Variant | effect of a mutation on the interaction |
| --- | --- |
| R361C | with no effect |

Variants of: B7
Settings: with irf2_human IRF2, P14316

| Variant | effect of a mutation on the interaction |
| --- | --- |
| G386D | with no effect |

Variants of: B7
Settings: with irf2_human IRF2, P14316
Remark: another data set of the same source

| Variant | effect of a mutation on the interaction |
| --- | --- |
| D351H | with no effect |
